One block for each binder: values may come before it.
Tests used:
[1] = biological target: T1, cynomolgus monkey PCSK9, V5- and 6xHis-tagged (cynomolgus monkey, UniProt A0A7N9D9N8 150-747); assay: BIAcore solution equilibrium assay, free PCSK9 read on immobilized 21B12
T1 construct: also called cPCSK9-V5-6xHIS; CynoPCSK9

[2] = biological target: T1, cynomolgus monkey PCSK9, V5- and …; assay: BIAcore SPR, antibody amine-coupled to CM5 chip, PCSK9 as analyte, pH 7.4
Procedure: Briefly, the surface plasmon resonance experiments were performed using Biacore 2000 optical biosensors (Biacore, GE Healthcare, Piscataway, N.J.). […] The concentration of PCSK9 protein was varied at 2 fold intervals (the analyte) and was injected over the immobilized antibody surface (at a flow rate of 100 μl/min for 1.5 minutes).
Antibody binding kinetic parameters including kₐ (association rate constant), kd (dissociation rate constant), and KD (dissociation equilibrium constant) were determined using the BIA evaluation 3.1 computer program (BIAcore, Inc. Piscataway, N.J.).

[3] = biological target: T1, cynomolgus monkey PCSK9, V5- and …; assay: KinExA solution equilibrium
Source text: (§1) Briefly, Reacti-Gel™ (6×) (Pierce) was pre-coated with one of human, V5-tagged cyno or His-tagged mouse PCSK9 proteins and blocked with BSA. […] Equilibrium dissociation constant (KD) were obtained from nonlinear regression of the two sets of competition curves using a one-site homogeneous binding model. The KinExA® Pro software was employed in the analysis.

[4] = biological target: T2, mouse PCSK9, 8xHis-tagged (mouse, UniProt Q80W65 35-694, limits assumed); assay: KinExA solution equilibrium
T2 construct: also called mPCSK9-8xHIS; mPCSK9
Source text: as §1

Kd [1]: 0.011 nM
Kd [2]: 0.36 nM
B1: 21B12, anti-PCSK9 huIgG4 (antibody, V domains shown)
VH: QVQLVQSGAEVKKPGASVKVSCKASGYTLTSYGISWVRQAPGQGLEWMGWVSFYNGNTNYAQKLQGRGTMTTDPSTSTAYMELRSLRSDDTAVYYCARGYGMDVWGQGTTVTVSS
VL: QSALTQPASVSGSPGQSITISCTGTSSDVGGYNSVSWYQQHPGKAPKLMIYEVSNRPSGVSNRFSGSKSGNTASLTISGLQAEDEADYYCNSYTSTSMVFGGGTKLTVLQ
notes: also called 21B12 IgG4; 21B12.1

Kd [3]: 0.002 nM
Kd [2]: 0.19 nM
B2: 31H4, anti-PCSK9 huIgG4 (antibody, V domains shown)
VH: EVQLVESGGGLVKPGGSLRLSCAASGFTFSSYSMNWVRQAPGKGLEWVSSISSSSSYISYADSVKGRFTISRDNAKNSLYLQMNSLRAEDTAVYFCARDYDFWSAYYDAFDVWGQGTMVTVSS
VL: QSVLTQPPSVSGAPGQRVTISCTGSSSNIGAGYDVHWYQQLPGTAPKLLISGNSNRPSGVPDRFSGSKSGTSASLAITGLQAEDEADYYCQSYDSSLSGSVFGGGTKLTVLQ

fold lower affinity to mouse PCSK9 than to human and cyno PCSK9 [4]: 10 to 250 fold
Kd [3]: 0.016 nM
Kd [2]: 0.87 nM
B3: 16F12, anti-PCSK9 huIgG4 (antibody, V domains shown)
VH: QVHLVESGGGVVQPGRSLRLSCAASGFTFNSFGMHWVRQAPGKGLEWVALIWSDGSDEYYADSVKGRFTISRDNSKNTLYLQMNSLRAEDTAVYYCARAIAALYYYYGMDVWGQGTTVTVSS
VL: QSVLTQPPSVSAAPGQKVTISCSGSSSNIGNNFVSWYQQLPGTAPKLLIYDYNKRPSGIPDRFSGSKSGTSATLGITGLQTGDEADYYCGTWDSSLSAYVFGTGTRVTVLQ
notes: also called 16F12 IgG4; 16F12.1
